Measured values reported in patent US20180344870A1 (AGENUS, published 2018).
Positions count from the first letter of the chain named.

B1: BA001 (IgG1) (antibody, V domains shown)
VH: not shown
VL: SYVLTQPPSVSVAPGETARITCGGDDIGDKRVHWYQKKPDQAPVLVVYEDRYRPSGIPERISGSNSGNTATLTLSRVEAGDEADYYCQVWDSSSDHPGVFGGGTQLIILG
modifications: N-terminal X = glutamine (Q) or pyroglutamate (pE)
notes: Human IgG1 with lambda light chain; also called anti-CD137 antibody BA001
B2: BA049 (IgG1 format) (antibody, V domains shown)
VH: not shown
VL: B1 VL
modifications: N-terminal X = glutamine (Q) or pyroglutamate (pE)
B3: BA050 (IgG1 format) (antibody, V domains shown)
VH: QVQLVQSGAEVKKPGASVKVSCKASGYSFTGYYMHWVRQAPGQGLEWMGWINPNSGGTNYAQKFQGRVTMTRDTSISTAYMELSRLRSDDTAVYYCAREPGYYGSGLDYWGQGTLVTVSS
VL: B1 VL with D91N
modifications: N-terminal X = glutamine (Q) or pyroglutamate (pE)
B4: BA051 (IgG1 format) (antibody, V domains shown)
VH: not shown
VL: B1 VL with H96Y
modifications: N-terminal X = glutamine (Q) or pyroglutamate (pE)
B5: BA052 (IgG1 format) (antibody, V domains shown)
VH: QVQLVQSGAEVKKPGASVKVSCKASGYNFSGYYMHWVRQAPGQGLEWMGWINPNSGGTNYAQKFQGRVTITRDTSISTAYMELSRLRSDDTAVYYCAREPGYYGSGLDYWGQGTLVTVSS
VL: B1 VL with D91Y, S94P
modifications: N-terminal X = glutamine (Q) or pyroglutamate (pE)

Columns and labels:
[1] = biological target: T1, human CD137 expressed on cells (human, UniProt Q07011 24-255); assay: flow cytometry on engineered Jurkat cells, anti-human lambda-PE detection
T1 construct: also called 4-1BB; TNFRSF9

[2] = biological target: T2, “4-aa mouse to human” CD137 protein (murine with a human segment, UniProt P20334 24-187); assay: SPR, BA001 captured by anti-human Fab, chimeric protein at 60 nM as analyte
T2 construct: also called “mouse to human” CD137 chimeric protein; not shown: Gly-Ser linker
Experimental: (§1) The chimeric CD137 proteins described above were tested in a surface plasmon resonance (SPR) assay. Briefly, a CM5 sensor chip was first coated with an anti-human Fab antibody using the amine coupling kit. […] Sensorgrams were recorded during both the association and dissociation phases.

[3] = biological target: T3, human-mouse fusion construct 5018 of CD137, on Jurkat cells (human with a murine segment, UniProt Q07011 24-255); assay: flow cytometry on transfected Jurkat cells, anti-human IgG-PE detection
T3 construct: also called mutant 5018; murine switch mutant 5018
T3 chain: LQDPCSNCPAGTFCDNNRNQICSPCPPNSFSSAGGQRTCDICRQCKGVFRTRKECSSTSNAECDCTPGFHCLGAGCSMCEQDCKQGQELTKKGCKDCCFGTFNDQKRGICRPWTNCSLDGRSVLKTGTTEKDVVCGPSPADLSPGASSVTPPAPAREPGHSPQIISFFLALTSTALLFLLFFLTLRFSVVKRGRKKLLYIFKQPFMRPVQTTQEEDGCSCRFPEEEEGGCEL
Experimental: (§2) These engineered mutant cell lines were used to test whether anti-CD137 antibody can bind to particular switch mutants. Absence of binding would thereby indicate possible epitope locations. The cell binding assays were performed generally as described in Section 1.1. […] The cells were then washed and suspended in 80 μl of 2% paraformaldehyde (Electron Microscopy Sciences) prepared in PBS. Data were collected with BD FACS Canto and analyzed using BD FACSDiva software.

[4] = biological target: T4, human-mouse fusion construct 5016 of CD137, on Jurkat cells (human with a murine segment, UniProt Q07011 24-255); assay: as above
T4 chain: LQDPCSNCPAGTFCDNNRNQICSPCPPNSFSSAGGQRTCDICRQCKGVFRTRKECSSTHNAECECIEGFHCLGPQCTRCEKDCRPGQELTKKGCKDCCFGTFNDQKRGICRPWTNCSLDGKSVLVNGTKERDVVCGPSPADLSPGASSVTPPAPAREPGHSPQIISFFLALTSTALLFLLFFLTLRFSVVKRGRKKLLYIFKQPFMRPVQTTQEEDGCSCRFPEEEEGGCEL
Experimental: as §2

[5] = biological target: T5, human-mouse fusion construct 5015 of CD137, on Jurkat cells (human with a murine segment, UniProt Q07011 24-255); assay: as above
T5 construct: also called mutant 5015; murine switch mutant 5015
T5 chain: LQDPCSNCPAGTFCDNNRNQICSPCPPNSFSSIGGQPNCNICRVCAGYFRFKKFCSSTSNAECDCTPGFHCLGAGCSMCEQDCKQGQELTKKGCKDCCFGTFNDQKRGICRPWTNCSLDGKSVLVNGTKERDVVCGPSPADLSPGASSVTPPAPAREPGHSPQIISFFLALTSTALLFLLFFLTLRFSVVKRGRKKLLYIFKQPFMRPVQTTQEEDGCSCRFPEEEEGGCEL
Experimental: as §2

[6] = biological target: T6, human-mouse fusion construct 5017 of CD137, on Jurkat cells (human with a murine segment, UniProt Q07011 24-255); assay: flow cytometry on transfected Jurkat cells, serial dilutions of antibody
T6 construct: on Jurkat cells
T6 chain: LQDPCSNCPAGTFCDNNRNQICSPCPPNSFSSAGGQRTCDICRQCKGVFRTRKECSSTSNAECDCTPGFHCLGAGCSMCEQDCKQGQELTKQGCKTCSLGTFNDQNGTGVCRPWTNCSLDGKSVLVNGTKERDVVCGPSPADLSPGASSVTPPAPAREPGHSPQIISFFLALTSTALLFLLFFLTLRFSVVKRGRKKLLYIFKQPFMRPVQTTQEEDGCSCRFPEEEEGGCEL
Experimental: as §2

[7] = biological target: T7, “4-aa human to mouse” CD137 protein (human with a murine segment, UniProt Q07011 24-186); assay: SPR, antibody captured by anti-human Fab, CD137 protein as analyte
T7 construct: also called “human to mouse” CD137 chimeric protein; not shown: Gly-Ser linker
Experimental: as §1

[8] = biological target: T8, mouse-human fusion construct 5015 (extracellular domain, Gly-Ser linker, 6×His tag) (murine with a human segment, UniProt P20334 24-187); assay: ELISA (DELFIA europium read-out), antigen coated at 5 µg/ml
T8 construct: also called mCD137-human53-80; not shown: Gly-Ser linker
T8 chain (part 1 of 2): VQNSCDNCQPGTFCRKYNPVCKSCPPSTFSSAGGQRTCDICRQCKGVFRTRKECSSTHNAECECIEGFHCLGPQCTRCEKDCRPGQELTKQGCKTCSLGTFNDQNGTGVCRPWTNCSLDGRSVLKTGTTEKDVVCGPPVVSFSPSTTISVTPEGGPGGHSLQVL
T8 chain (part 2 of 2): HHHHHH
Experimental: (§3) Specifically, 50 μl of 5 μg/ml of each antigen diluted in 1×PBS pH 7.4 (Gibco™, Cat no. 10010056) was added to each well in a Thermo Scientific™ Black 96-Well Immuno Plate (Thermofisher Scientific, Cat no. 437111) and incubated at 4° C. overnight. The plate was washed three times with PBS using the Biotek 405TS microplate washer with Biostack3 microplate stacker. The plate was blocked by incubating with 300 ul/well of 3% Milk Powder in PBS (Marvel dried skimmed milk powder) for 1 hour at room temperature, and were washed three times with 1×PBS. The antibodies titrated in 3% M-PBS (Milk Powder in 1×PBS) were added to the plate and incubated for 1 hour at room temperature. The plate was washed three times with 1×PBS with 0.1% Tween20 (Sigma Aldrich, Cat No. P1379) and three times with 1×PBS using the plate washer. 50 μl Biotin-SP (long spacer) AffiniPure Goat Anti-Human IgG, Fcγ Fragment Specific (Jackson Immuno Research, Code:109-065-098, Lot no. 123909) diluted at 1:2000 in 3% M-PBS was added to each well and incubated for 1 hour at room temperature. The plate was washed three times with 1×PBS with 0.1% Tween20 and three times with 1×PBS using the plate washer. For detection, 50 μl of DELFIA® Europium-labeled streptavidin (PerkinElmer, Part no. 1244-360, Lot no. 2195997) diluted in the DELFIA® Assay buffer (PerkinElmer, Part no. 4002-0010, Lot no. 646702) at 1:500 was added to each well and incubated for 1 hour at room temperature. The plate was washed three times with 1×PBS with 0.1% Tween20 and three times with PBS using the plate washer.

[9] = biological target: T9, mouse-human fusion construct 5017 (extracellular domain, Gly-Ser linker, 6×His tag) (murine with a human segment, UniProt P20334 24-187); assay: ELISA (DELFIA europium read-out), antigen coated at 5 µg/ml, IgG1 titrated
T9 construct: not shown: Gly-Ser linker
T9 chain (part 1 of 2): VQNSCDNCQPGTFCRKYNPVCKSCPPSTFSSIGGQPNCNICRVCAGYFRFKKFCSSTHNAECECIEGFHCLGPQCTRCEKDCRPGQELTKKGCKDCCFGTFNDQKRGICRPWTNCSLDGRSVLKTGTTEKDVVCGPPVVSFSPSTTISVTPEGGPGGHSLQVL
T9 chain (part 2 of 2): HHHHHH
Experimental: as §3

[10] = biological target: T10, extracellular domain of human CD137 with Gly-Ser linker and 6×His tag (human, UniProt Q07011 24-186); assay: as above
T10 construct: also called human CD137 (ELISA antigen); not shown: Gly-Ser linker
Experimental: as §3

| Binder | binding result [1] | binding result [2] | binding result [3] | binding result [4] | binding result [5] | binding result [6] | binding result [7] | binding result [8] | binding result [9] | binding result [10] |
| --- | --- | --- | --- | --- | --- | --- | --- | --- | --- | --- |
| B1 | binds | binds | binds | binds | binds | no binding | no binding (tested: 60 nM) |  |  |  |
| B2 |  |  |  |  |  |  |  | no binding | binds | binds |
| B3 |  |  |  |  |  |  |  | no binding | binds | binds |
| B4 |  |  |  |  |  |  |  | no binding | binds | binds |
| B5 |  |  |  |  |  |  |  | no binding | binds | binds |
